Reference: publication PMC7954794, “Protein context shapes the specificity of SH3 domain-mediated interactions in vivo” (Nature Communications, 2021)

B1: YNL106C_1 (protein, UniProt P50942 1-1183, looked up)
Polyphosphatidylinositol …: MKILLSKQQTRKIAIVSETHGLVFRPINSKNSRRSTCAVELVPKAELNGNGFRRLSNHEIYGFIGLIEIEGLMFIATITGKSKVAQPIPNKTVNKIYAVDFFCLNNSKWDFMDIDSSGYPIVTNDGDFAISSPPSISTHSSRSSLRSSSSRSLNAQEQAPKHPCHELRKLLSNGSFYYSTDFDLTCTLQKRGFTEHSLSFDDFDREFMWNSFLMDEIITYRDRLDVTAKELLDQRGFLTTVIRGFAETIFSYINRLKVGLTIISRQSWKRAGTRFNARGIDDDGHVANFVETEMIMYSSQYCYAFTQIRGSLPIFWEQDTSLISPKIQITRSVEATQPTFDEHFIRLFKKYGPVHIINLLSTKSSEIQLSRRYKEQLKNSEKMKIGRDVFLTSFDFHRETSQDGFAAASRIIPKIRNTILDAGYFSYDVKEGRLISEQDGVFRTNCLDCLDRTNLIQQTISLAVFKLFLEDFRLVKPSSFIDDNEFVQKVNALWADNGDQISQIYTGTNALKSSYSRKGKMSFSGALSDATKSVSRMYINNFVDKGKQQNIDTLLGKLPHQQVVELYDPICEYVNERLLESEEKFTTHSNINLFVGTFNVNGNSRRADLSKWLFPIGDKFKPDVVVLGLQEVIELTAGSILNADYTKSSFWETMVTDCLNQYEEKYLLLRVEQMSSLLILFFARSDRAYNIKEVGGSTKKTGFGGITGNKGAVAIRFDYGATSFCFVNTHLSAGASNIDERRNDYNNIYRNITFPRSKTIPHHDSLFWLGDLNYRITLTNDEVRRELRAQKDGYIDRLLQYDQLTQEINEGVVFQGFKEPTLQFRPTYKYDYGTDNYDTSEKARTPSWTDRIIYKGENLHPLAYSDAPLKISDHKPVYAAYRANVKFVDEKEKLNLVEKLYAEYKNTHPEALTTGPDELSHARMEKQKESIPLDATVQSAGIKLIDLDDTSSCVSPLLSGPSPQPSVVGPGGLSNVSPDKSKLNVLPPPPPTSRHNKEPSSKLLSPTKEISIVSVSPRKGESNLPALERHSTPKPLPPVPALSLSKPVSLQKSSSELQHAKETIDNGKIVPRPCPPIRRKSSTAPDEISTSTKNSGVSTTEDPEPAKASTKPEKPPVVKKPHYLSVAANKLNTSQEHSIKVSPSNSKSEEELPCKKKSKPKVPAKNPELEKLSVHPLKPCDPN
B2: YMR192W_1 (protein, UniProt Q04322 1-720, looked up)
Probable GTPase-activating …: MNSNEDIHEERIEVPRTPHQTQPEKDSDRIALRDEISVPEGDEKAYSDEKVEMATTNASSNFGSNESAKDGESIGAFSNPHEALMQSKLREESQSKTILPSDDLSQQLETEESKVEEALKRITSPPLPPRADCIEESASALKSSLPPVLAGNKNDQAPLDRPQLPPRQVVNAETLHLKAPHGNATPSKSPTSAVGNSSSSTPPTLPPRRIEDPLDLAAQKHFLASTFKRNMLFYKSEDNSIKCDLDKNILNLKEDSKKINNNEIPEEVSSFWLKVIGDYQNILINDIETLHFQLSRGIPAAYRLVVWQLVSYAKSKSFDPIYETYLTEMAPFDVQEFENQLKMMDEVPSEYVKRISNVLKAYLLFDPECEFSTDIAYIINMILDVCEEEANAFGLLVRLMKVYGLRLLFLPSASEIDILCYKFDRLVEEFYPEIHNHMVEKGVRSSMFLPGFFTTLFQKKLPTEIQPRIGDMVFLEGIDSIMRILATLLSNSRDHLLKMGFDDMLELLKSGLLDAYIKQNDGTRGDTLLSNECMDKLLQDSMMKVAITPKTMKKYSSEYEEIHRLDNEKEVQYKSITEKNLHLQKHVRKLENDYTSLNREHVTIANELVKNRLNIESVLNENNGYKLQILDLKKKLDSEKKKQVLGVYVPNDLKKDLEETMKKNTQVMDENLKLQDRISELERLIEEIKTANKNGTLFEYSNSKNNPLGAGWSGFKKVFK
B3: YJL020C_1 (protein, UniProt P47068 1-1157, looked up)
Myosin tail …: MSEPEVPFKVVAQFPYKSDYEDDLNFEKDQEIIVTSVEDAEWYFGEYQDSNGDVIEGIFPKSFVAVQGSEVGKEAESSPNTGSTEQRTIQPEVEQKDLPEPISPETKKETLSGPVPVPAATVPVPAATVPVPAATAVSAQVQHDSSSGNGERKVPMDSPKLKARLSMFNQDITEQVPLPKSTHLDLENIPVKKTIVADAPKYYVPPGIPTNDTSNLERKKSLKENEKKIVPEPINRAQVESGRIETENDQLKKDLPQMSLKERIALLQEQQRLQAAREEELLRKKAKLEQEHERSAVNKNEPYTETEEAEENEKTEPKPEFTPETEHNEEPQMELLAHKEITKTSREADEGTNDIEKEQFLDEYTKENQKVEESQADEARGENVAEESEIGYGHEDREGDNDEEKEEEDSEENRRAALRERMAKLSGASRFGAPVGFNPFGMASGVGNKPSEEPKKKQHKEKEEEEPEQLQELPRAIPVMPFVDPSSNPFFRKSNLSEKNQPTETKTLDPHATTEHEQKQEHGTHAYHNLAAVDNAHPEYSDHDSDEDTDDHEFEDANDGLRKHSMVEQAFQIGNNESENVNSGEKIYPQEPPISHRTAEVSHDIENSSQNTTGNVLPVSSPQTRVARNGSINSLTKSISGENRRKSINEYHDTVSTNSSALTETAQDISMAAPAAPVLSKVSHPEDKVPPHPVPSAPSAPPVPSAPSVPSAPPVPPAPPALSAPSVPPVPPVPPVSSAPPALSAPSIPPVPPTPPAPPAPPAPLALPKHNEVEEHVKSSAPLPPVSEEYHPMPNTAPPLPRAPPVPPATFEFDSEPTATHSHTAPSPPPHQNVTASTPSMMSTQQRVPTSVLSGAEKESRTLPPHVPSLTNRPVDSFHESDTTPKVASIRRSTTHDVGEISNNVKIEFNAQERWWINKSAPPAISNLKLNFLMEIDDHFISKRLHQKWVVRDFYFLFENYSQLRFSLTFNSTSPEKTVTTLQERFPSPVETQSARILDEYAQRFNAKVVEKSHSLINSHIGAKNFVSQIVSEFKDEVIQPIGARTFGATILSYKPEEGIEQLMKSLQKIKPGDILVIRKAKFEAHKKIGKNEIINVGMDSAAPYSSVVTDYDFTKNKFRVIENHEGKIIQNSYKLSHMKSGKLKVFRIVARGYVGW
B4: YOL100W_1 (protein, UniProt Q12236 1-1081, looked up)
Serine/threonine-protein …: MYFDKDNSMSPRPLLPSDEQKLNINLLTKKEKFSHLDPHYDAKATPQRSTSNRNVGDLLLEKRTAKPMIQKALTNTDNFIEMYHNQQRKNLDDDTIKEVMINDENGKTVASTNDGRYDNDYDNNDINDQKTLDNIAGSPHMEKNRNKVKIEHDSSSQKPIAKESSKAQKNIIKKGIKDFKFGSVIGDGAYSTVMLATSIDTKKRYAAKVLNKEYLIRQKKVKYVSIEKTALQKLNNSPSVVRLFSTFQDESSLYFLLEYAPNGDFLSLMKKYGSLDETCARYYAAQIIDAIDYLHSNGIIHRDIKPENILLDGEMKIKLTDFGTAKLLNPTNNSVSKPEYDLSTRSKSFVGTAEYVSPELLNDSFTDYRCDIWAFGCILFQMIAGKPPFKATNEYLTFQKVMKVQYAFTPGFPLIIRDLVKKILVKNLDRRLTISQIKEHHFFKDLNFKDGSVWSKTPPEIKPYKINAKSMQAMPSGSDRKLVKKSVNTLGKSHLVTQRSASSPSVEETTHSTLYNNNTHASTESEISIKKRPTDERTAQILENARKGINNRKNQPGKRTPSGAASAALAASAALTKKTMQSYPTSSSKSSRSSSPATTSRPGTYKRTSSTESKPFAKSPPLSASVLSSKVPMPPYTPPMSPPMTPYDTYQMTPPYTTKQQDYSDTAIAAPKPCISKQNVKNSTDSPLMNKQDIQWSFYLKNINEHVLRTEKLDFVTTNYDILEKKMLKLNGSLLDPQLFGKPRHTFLSQVARSGGEVTGFRNDPTMTAYSKTEDTYYSKNIIDLQLLEDDYRIEGGDLSELLTNRSGEGYKCNQNSSPMKDDDKSESNNKGSSVFSGKIKKLFHPTSAAETLSSSDEKTKYYKRTIVMTSFGRFLVFAKRRQPNPVTNLKYELEYDINLRQQGTKIKELIIPLEMGTNHIVVIQTPYKSFLLSTDKKTTSKLFTVLKKILNSNTNKIEKELLQRNQKVIERRTSSSGRAIPKDLPTSKSPSPKPRTHSQSPSISKHNSFSESINSAKSNRSSRIFETFINAKEQNSKKHAAPVPLTSKLVNGLPKRQVTVGLGLNTGTNFKNSSAKSKRS
B5: YNL287W_2 (protein, UniProt P32074 1-935, looked up)
Coatomer subunit gamma: MSAHTYKKFENSTSGDLPDKMTIYQDCMNTFNESPVNSKRCRLLISRLLRLLAQGETFPQNEATALFFSISKLFQHQNDPLRQAVYLAIKELSGISEDVLMATSSIMKDVQNGSDLIKPDAIRSLTYVLDESTAFSAERLLKSAVVSRHPSISSAALCTSYHLLPISEVTIRRFTNETQEAVLDLKQFPNQHGNSEYYPNSTYISQYHALGLLYQLKKTDKMALLKLVRHFSENNSMKNQLAKVELVKIVNDLIYRDPQLFSQFRPLLSDWLSNKFESVQLETAKLITSFATRNSRLVAPELYAAAISALQSLLTVPRVSSRFAALRILNRISMVSPEKIVVCNPELESLINDSNRNISTYAITTLLKTGTSKNISSLISTITNFIHDVSDDFKIIIIDAVRTLSLNFPQEWKSILNFLIDVLKNSEGGFKFKNSIVEALIDIVSFVPQSKELALENLCDFIEDCEFNEILVRILHLLGKEGPSAPNPSLYVRHIYNRVVLENSIIRSAAVVALSKFALTKNDPTLYESIISLLKRIANDKDDEVRDRATIALEFIDSARNKDDVIAQNLIESKYFYDIPSLESKLSSYISSNTDSFATAFDVNQVRKFTEDEMKAINLKRKQEQIFNQKSETTLDTTPEAESVPEKRADANSFAGPNLDDHQEDLLATKYADELLSIEQIKPFGQLVNSSRAISLTEPEAEFVVRGVKHLFKDNVVLQFNITNTLTDIALDNVSVVCTPEISDEAELEELFTLQVDRLLPSEEAACYVAFKKLDEIVMEGFLNNLTFTTKEINPDTNEPFDGDEGFQDEYEIDSIFLNAGDYVKSSFTGNFSATFDELPCEEVAVFNIQEDLSIQEVVDKIILNSSCLPVESTQFAPSDSNSHTLKLFGKSALTGSKVALQIKMIKSSKGLALKVHGKGEDSLLCSDLVNGLMQ

Test system: PPIs identified as affected by the SH3 domain deletions
Assay: Liquid DHFR-PCA low-throughput validation of PPIs affected by SH3 deletion (Fig. S1D-E)
Assay type: cell-based, Saccharomyces cerevisiae
Settings: label = prey, liquid DHFR-PCA, prey _1 = lost, _2 = gained in screen
In short: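 Yeast diploids from DHFR-PCA mating grown 48 h in synthetic complete MSG medium pH 6.0 with NAT and HPH, normalized to 1 OD and diluted to 0.1 OD in liquid PCA selection medium. Growth followed by OD every 15 min for 72 h at 30 °C.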

Molecule | Ratio (Deletedscore / WTscore) (bait LSB3) | Ratio (Deletedscore / WTscore) (bait MYO3) | Ratio (Deletedscore / WTscore) (bait MYO5) | Ratio (Deletedscore / WTscore) (bait ABP1)
B1 | 0.7587 |  |  | 
B2 | 0.5637 |  |  | 
B3 |  | 0.4075 | 0.4895 | 
B4 |  | 0.53 |  | 
B5 | 1.751 |  |  | 1.101
